Results as given in the nanobody polyreactivity screen of Harvey et al. (2022).

Assay: yeast display, Sf9 membrane polyspecificity reagent, FACS + sequencing; frameworks hold sequencing errors
Outline: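 A nanobody's polyreactivity label depends on the gate it was sorted from. Yeast display cells were stained with 10% biotinylated, detergent-solubilized Sf9 membrane reagent for 1 hour at 4 °C, enriched on streptavidin microbeads and sorted by FACS. The low and high (top ~1%) gates were set on anti-HA fluorescence for expression and streptavidin fluorescence for reagent binding.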

Sequence: QVQLVESGGGLDQAGGTLRLSSAASGFTFGSYAMRWYRQAHGKERELVAAITRSGSTTYYADSVKGRFTISRDNAKNTFFLQMNSLKPEDTAVDYCNAYTVRSYRFDYWGQGTQVTVSS
- polyreactivity (PSR sort gate): high polyreactivity

Sequence: QVQLVESGGGLVQAGRSLRLSCAASGINFAGYAKGWYRQAPGKERELVAAISRGGSTYYADSVKGRFTISRDNAKNTVYFQMNSLIPEDTAVYYCNTYYQQGYFTYTGWNYNYWGQGTQVTVST
- polyreactivity (PSR sort gate): high polyreactivity

Sequence: QVQLVESGGGLVQAGGSLRLSCAASGSTFVLNAMGWYRQSPGKERQLVAGISYGTGSTYYADSVKGRITISRDNAKNTVYLQMNSLKPEDTAVYFCAADNWAVNAYYWYIYDYWGQGTQVTVSS
- polyreactivity (PSR sort gate): low polyreactivity

Sequence: QVQLVESGGGLVQAGGSLRLSCAASGRTFRYYAMGWYRQAPGKERELVAAINRGGSTYYADSVKGRFTISRDNAKNTVYLQMNSLKPEDTAVYYCNVDKYRIVGFHSPYDYWGQGTQVTVSS
- polyreactivity (PSR sort gate): high polyreactivity

Sequence: QVQLVESGGGLVQAGGSLRLSCADTGRTFSRNSMGWYIQAPGKERELVATITRGTITNYADSVKGRFTISRDNAMNTVYLQINSRKPEDTAVYYCNARTLFFPARNRCELSDYWGQGTQVTVSS
- polyreactivity (PSR sort gate): low polyreactivity

Sequence: QVQLVESGGGLVQAGGSLRLSCAASGITLFYSAMGWYRQAPGKERELVAAISWSGGSTYYADSVKGRFTISRDNAKNTVYLQMNSLKPEDTAVYYCAAGYIRFYRSREYWGQGTQVTVSS
- polyreactivity (PSR sort gate): high polyreactivity

Sequence: QVQLVESGGGLVQAGGSLRISCAASGRTFALNAMGWYRQAPGKERELVAAISSGGSTYYADSVKGRFTISRDNAKNTVYLQMNSLKPEDTAVYYCAKTSFKYRWSYPVISMDYWGQGTQVTVSS
- polyreactivity (PSR sort gate): high polyreactivity

Sequence: QVQLVESGGGLDQAVGSLPLSCAASGRTFYLNTRGWYREAPWKEREFVAAISATAGRTYYADSVKGRFTISRDNAKNTVYLQMYSLKPEDTAVYYCAAVPLRIRWPNSSPALDYWGQGTQVTVSS
- polyreactivity (PSR sort gate): high polyreactivity

Sequence: QVQLVESGGGLVQGGGSLRLSCAASGLIFYHYAMGWYRQAPGKEREFVAAITVSGGSTSYADSVKGRFTISRDNAKNTVDLQMNSLKPEDNAVYYSADRVNYRSPGVSKGRDYWGQGTQVTVSS
- polyreactivity (PSR sort gate): low polyreactivity

Sequence: QVQLVESGGGLVQAGGSLRITCAASGSTFYGKSMGLYRQAPGKERELVAAISRGGGSTYYADSVKGRFTISRDNAKNTVYLQMNSLIPEDTAVYYCAGTRYLHPWYYPYYYWGQGTQVTVSS
- polyreactivity (PSR sort gate): low polyreactivity

Sequence: QVQLVESGGGLVQAGGSLRLSCAASGLIFIAYSMGWYRQAPGKEREFVAAITWNGVSTYYADSVKGRFTISRDNAKNTVYLQMNSLKPEDTAVYDCNADYDFSPWAYEYWGQGTQVTVSS
- polyreactivity (PSR sort gate): high polyreactivity

Sequence: QVQRVESGGGLVQAGGSLRLSCAASGRIFRYYAMGWYRQAPGKERELVAAISRSSGSTYYADSVKGRFTISRDNAKNTVYLQMNSLKPEDTAVYYCATAFYSYGRYPQSYYWGQGTQVTVSS
- polyreactivity (PSR sort gate): high polyreactivity

Sequence: QVQLVESGGGLVQAGGSLRLSCAPSGFIFYANDMGWYRQAPGKERELVARITNSGGSTYYADSVKGRFTISRDNAKNTVYLQMNSLKPEDTAVYYCAAWRRFNYSRRYYYWGQGTQVTLSS
- polyreactivity (PSR sort gate): high polyreactivity

Sequence: QVQLVESGGGLVQAGGSLRLSCAASGRIFDFNAMGWYRQAPGKEREVVAAISSGGRTKYADSVKGRFTISRDNAKNTVYLQMNSLKPEDTAVYYCAASGSQPDDYWGQGTQVTVSS
- polyreactivity (PSR sort gate): high polyreactivity

Sequence: QVQLVESGGGLVQAGGSLRLSCAASGSTFDKYSMGWYRQAPGKERELVAAITWGGGSTYYADSVKGRFTISRDNAKNTVYLQMNSLKPEDTAVYYCAAEQGSSVLYDSWGQGTQVTVSS
- polyreactivity (PSR sort gate): low polyreactivity

Sequence: QVQLVESGGGLVQAGGSLRLSCAASGSTFQVYAMGWYRQAPGKERELVAAISNGGRTNYADSVKGRFTISRDNAKNTVYLLMNSLKPEDTAVYYCNADQVWWSFDRVLVGYEYWGQGTQVTVSS
- polyreactivity (PSR sort gate): low polyreactivity

Sequence: QVQLVESGGGLVQAGGSLRLSCAASGLIFVYNDMGWYRQAPGKERELVAGITGTGGNTYYADSVKGRFTISRDNAKNTVYLQMNSLKPEDTAVYYCAAQRSVFKSFRTTYVRYDYWGQGTQVTVSS
- polyreactivity (PSR sort gate): high polyreactivity

Sequence: QVQLVESGGGLVQAGGSLRLSCAASGFTFYVNAMGWYRQAPGKERELVAAITDDGDSTYYADSVKGRFTISRDNAKNTVYLQMNSLKPEDTAVYYCNTVYGPDLYGTEYDYWGQGTQVTVSS
- polyreactivity (PSR sort gate): low polyreactivity

Sequence: QVQLVESGGGLVQAGGSLRLSCAASGSIFYSYMGWYRQAPGKERECVAAINQRGSSTYYADSVKGRFTISRDNAKNTVYLQMNSLKPEDTAVYDCAAVFFGVYTSRRYYWGQGTQVTVSS
- polyreactivity (PSR sort gate): high polyreactivity

Sequence: QVQLVESGGGLVQAGGSLRLSCAASGRILRTYAMGWYRQPPGKETELVAAITWSGASTYYADSVKGRFTISRDNAMNTVYLQMNSLKPEDTAVYYCNALSPGYRIYDYWGQGTQETVSS
- polyreactivity (PSR sort gate): high polyreactivity

Sequence: QVQIVESGGGLVQAGGSLRLSCAASGRTVGYNPMGWYRQAPGKETELVAVIRSGGSTYYADSVKGRFTISRDNAQYSVYLQLHSLIPEDSEVYYCAATGLYNVTSPYSYKYDYWGQCTQVTVSS
- polyreactivity (PSR sort gate): low polyreactivity

Sequence: QVQLVESGGGLVQAGGSLRLSCAASGFTFNGNAMGWYRQAPGKERELVAAISYSGGSTYYADSVKGRFTISRDNAKNTVYLQMNSLKPVDTAVFYCAADRTAYSVRAFTKDHSGHDYCGQGTQVTVSS
- polyreactivity (PSR sort gate): low polyreactivity

Sequence: QVQLVDSGGGLVQAGGSLRLSCAASGSIFGSNAMGWYRQAPGKERELVAAITWSDGSTYYADSVKGRFTISRDNAKNTVYLQMNSLKPEDTAVYYCATDYGYSWYDYWGQGTQVTVSS
- polyreactivity (PSR sort gate): low polyreactivity

Sequence: QDQLVESGGGLVQAGGSLRLSCAASGRIFSRNAMGWYRQAPGKERELVAAITWRGGSTYYADSVKGRFTISRDNAKNTVYLQMTSLKPEDTAVYYCNRDYRQYGYAYSGRYYWGLGTQVTVSS
- polyreactivity (PSR sort gate): high polyreactivity

Sequence: QVQLVESGGGLVQAGGSLRLSCAASGSTFYTYAMGWYRQAPGKERELVAAISWSGGSTYYADSVKGRFTISRDIAKNTVYLQMNSLKPEDTAVYYCAKKQVTTDVSSETFVLEMDYWGQGTQVTVSS
- polyreactivity (PSR sort gate): low polyreactivity

Sequence: QVQLVESGGGLVQAGGSLRLSCAASGRIFVRNAMGWYRQAPGKERELVAGISNAGRTNYADSVKGRFTISRDNAKNTVYLQMNSLKPEDTAVYYCAKRPGYDYDYWGQGTQVTVSS
- polyreactivity (PSR sort gate): high polyreactivity

Sequence: QVQLEESGGGLVQAGGSLRLSCAASGSTFKLYTMGWYRQAPGKEREFVATITSGGRTNYADSVKGRFTISRDNAKNTVYLQMNSLKPEDTAVYYCAATWLRVKYRFKGYDYWGQGTQVTVSS
- polyreactivity (PSR sort gate): high polyreactivity

Sequence: QDQHVESGGGLVQAGGSLRLSCAASGSTFPYYAMGWYRQAPGKERELVAAITSSGGSTYYADSVKGRFTISRVNAKNTVYLQMNSLKPEDTAVYYCANGYGPYRQMNYWGQGTQVTVSS
- polyreactivity (PSR sort gate): low polyreactivity

Sequence: QVQLVESGGGLVQAGGSLRLSCAASGFIFYDYAMGWYRQAPGKERELVAVITSGGSTYYADSVKGRFTISRDNAKNTVYLQMNSLKPEDTAVYYCNADWVFTWYDYPNDTYDYWGQGTQVTVSS
- polyreactivity (PSR sort gate): low polyreactivity

Sequence: QVQLVESGGGLVQAGGSLRLSCADSGRIFGYNAMGWYRQAPGKEREFVAAITTSGGSTYYADSVKGRFTISRDNAKKTVFLQMTSLKPEDTAVYYCARDSLHVFYPYASDDYWGQGTQVTVSS
- polyreactivity (PSR sort gate): low polyreactivity

Sequence: QVQLLESGGGLVQAGGSLRLSSAASGRIFLGYTMGWYRPAPGNERELVAAIRLSGGTTRYADSVKGRFTISRDNAKNTVYLQMYSLKPEDTAVYYCAARDRRTYSLYYWGQGSQVTVSS
- polyreactivity (PSR sort gate): high polyreactivity

Sequence: QVQLVESGGGLVQAGGSLRLSCAASGRTFYYYAMGWYRQAPGKERELVAAISSRGGRTYYADSVKGRFTISRDNAKNTVYLQMNSLKPEDTAVYYCAKVVAYYDRDSWGQGTQVTVSS
- polyreactivity (PSR sort gate): high polyreactivity

Sequence: QVQLVESGGGLVQAGGSLRLSCAASGRILSYYAMGWYRQAPGKETELVATISASGGSTYYADSVKGRFTISRDNAKNTVYLQMNSLKPEDTAVYYCAAARVPAYYLRYLYRTTYDYWGQGTQVTVSS
- polyreactivity (PSR sort gate): high polyreactivity

Sequence: QVQLVESGGGLVQAGGSLRLSCAASGSIFGGYGMGWYSQAPGKERELVAAITSGSSTYYADSVKGRFTISRDNAKNTVYLLMNSLKPEDTAVYYCAKVSYYPWRYDYWGQGTQVTVTS
- polyreactivity (PSR sort gate): low polyreactivity

Sequence: QVQLVESGGGLVQAGGSLRLSCAASGRPLGQNVMGWYRQAPGKERELVAASSSNTAGNTYYADSVKGRFTISRDNAKNTVYLQMNSLKAEDTAVYYCAKVDSFEAKLDYWGQGTQVTVSS
- polyreactivity (PSR sort gate): low polyreactivity

Sequence: QVQLVESGGGLVQAGGSLRLSSDDSGFTFVSNAMGWYRQAPGKEMELVAVISSGGSTTYADSVKGRFTISRDNAKNTVYLQMNSLKPEDTAVYYCATTNYQDSYEGGDYWGQGTQVTVSS
- polyreactivity (PSR sort gate): low polyreactivity

Sequence: QVQLVESRGCLVQAGGSLRLSCAASGSTFYPYAMGWYRQAPGKERELVAGITVIDGSTYYADSVKGRFTISRDNAKNTVYLQMNSLKPEDTAVYYCAFDAPNQVQEYGYWGQGTQVTVSS
- polyreactivity (PSR sort gate): low polyreactivity

Sequence: QFQLVESGGGLVQAGGSLRLSCAASRRTFTYYDMGWYRQAPGNEGELVSAISRRGGSTYYADSVKGRFTISRDNAKNTVYFQMNSLKPEDTAVYYCAAEVRLFSYTYSFFRYEYWGQGTHVTVSS
- polyreactivity (PSR sort gate): high polyreactivity

Sequence: QVQLVDSGVGLVQAGGSLRLSCAASGSIFYQNAMGWYRQAHGSERELVAAITSDGSTYYADSVKGRFTISRDNAKNTVYLQMNSLKPEDTAVYYCPAEYYGHRYDYCGQGTQVTVSS
- polyreactivity (PSR sort gate): low polyreactivity

Sequence: QVQLVESGGGLVQAGGSLRLSCAASGFTLDSNALGWYRQAPGKERELVAAISWDDGSTYYADSVKGRFTISRDNAKNTVYLQMNSLKPEDTAVYYCAADASDVYGDRPWFHYYWGYDYWGQGTQVTVSS
- polyreactivity (PSR sort gate): low polyreactivity

Sequence: QVQIVETGGGLVQAGGSLRLSCAASGFIFSNYARGRYRQAPGKERELVAAISWSGGRTYYADSVKGRFTISRDNAKNSVYLQMNSLKPEDTAVYYCATRYGSASGREYEYWGQGTQVTVSS
- polyreactivity (PSR sort gate): high polyreactivity

Sequence: QVQLVESGGGLVQAGGSLRLSCAASGFTFTHYAMGWYRQAPGKERELVAAITDTGGGTYYADSVKGRFTISRHNAKNTVYLQMNSLKPQDTAVYYCAKPTSYRGYYSWGQGTQVTVSS
- polyreactivity (PSR sort gate): high polyreactivity

Sequence: QVQLVESGGGLVQAGGSLRLSCAGSGSIFGLYAMGWYRQEPGKERELVAAINQSGGSTSYADSVKGRFTISRDNAKNTVYFQMNSLKPEDTAVYYCNRVRLNTEGFDYWGQGTQVTVSS
- polyreactivity (PSR sort gate): low polyreactivity
